Experimental data reported in article PMC13389011, “Expedient single-round selection of hyper-modified aptamer targeting insulin receptor from over-represented dually nucleobase-modified DNA libraries”.
Where a chain is given by its changes, count along the chain named.

B1: HIR-6_T1 (XNA)
DNA: CATGACGCTCACTGTATCTCGCGUUUAACGUAACAGCGAUGUCUCUCAUG
modifications: DNA backbone; 7-deaza-7-(indolyl-ethyl)-dA (dAAIn) at 27,28,32,33,35,39,48; 5-(phenyl-ethynyl)-dU (dUEPh) at 24,25,26,31,40,42,44,46,49
B2: HIR-6_T9 (XNA)
DNA: CGCTCACTGTATCTCGCGUUUAACGUAACAGCGAUGUCUC
modifications: DNA backbone; 7-deaza-7-(indolyl-ethyl)-dA (dAAIn) at 22,23,27,28,30,34; 5-(phenyl-ethynyl)-dU (dUEPh) at 19,20,21,26,35,37,39
B3: HIR-6_T2 (XNA)
DNA: CATGACGCTCACTGTATCTCGCGUUUAACGUAACAGCGAUGUCUC
modifications: DNA backbone; 7-deaza-7-(indolyl-ethyl)-dA (dAAIn) at 27,28,32,33,35,39; 5-(phenyl-ethynyl)-dU (dUEPh) at 24,25,26,31,40,42,44
B4: HIR-6_T7 (XNA)
DNA: CGCTCACTGTATCTCGCGUUUAACGUAACAGCGAU
modifications: DNA backbone; 7-deaza-7-(indolyl-ethyl)-dA (dAAIn) at 22,23,27,28,30,34; 5-(phenyl-ethynyl)-dU (dUEPh) at 19,20,21,26,35
B5: HIR-6_T8 (XNA)
DNA: ACTGTATCTCGCGUUUAACGUAACAGCGAU
modifications: DNA backbone; 7-deaza-7-(indolyl-ethyl)-dA (dAAIn) at 17,18,22,23,25,29; 5-(phenyl-ethynyl)-dU (dUEPh) at 14,15,16,21,30
B6: HIR-6_T4 (XNA)
DNA: CGCTCACTGTATCTCGCGUUUAACGUAACAGCGAUGUCUCUCAUGAUGUC
modifications: DNA backbone; 7-deaza-7-(indolyl-ethyl)-dA (dAAIn) at 22,23,27,28,30,34,43,46; 5-(phenyl-ethynyl)-dU (dUEPh) at 19,20,21,26,35,37,39,41,44,47,49
B7: HIR-6_N (ssDNA)
DNA: CATGACGCTCACTGTATCTCGCGTTTAACGTAACAGCGATGTCTCTCATGATGTC
B8: HIR-8_N (ssDNA)
DNA: B7 DNA with G23C, C34G
B9: HIR-6_M2 (XNA)
DNA: B7 DNA with T24U, T25U, T26U, T31U, T40U
modifications: DNA backbone; 7-deaza-7-(indolyl-ethyl)-dA (dAAIn) at 27,28,32,33,35,39; 5-(phenyl-ethynyl)-dU (dUEPh) at 24,25,26,31,40
B10: HIR-6_T3 (XNA)
DNA: CATGACGCTCACTGTATCTCGCGUUUAACGUAACAGCGAU
modifications: DNA backbone; 7-deaza-7-(indolyl-ethyl)-dA (dAAIn) at 27,28,32,33,35,39; 5-(phenyl-ethynyl)-dU (dUEPh) at 24,25,26,31,40
B11: HIR-6_T6 (XNA)
DNA: TATCTCGCGUUUAACGUAACAGCGAUGUCUCUCAUGAUGUC
modifications: DNA backbone; 7-deaza-7-(indolyl-ethyl)-dA (dAAIn) at 13,14,18,19,21,25,34,37; 5-(phenyl-ethynyl)-dU (dUEPh) at 10,11,12,17,26,28,30,32,35,38,40
B12: HIR-6_T5 (XNA)
DNA: ACTGTATCTCGCGUUUAACGUAACAGCGAUGUCUCUCAUGAUGUC
modifications: DNA backbone; 7-deaza-7-(indolyl-ethyl)-dA (dAAIn) at 17,18,22,23,25,29,38,41; 5-(phenyl-ethynyl)-dU (dUEPh) at 14,15,16,21,30,32,34,36,39,42,44
B13: HIR-6 (XNA)
DNA: CATGACGCTCACTGTATCTCGCGUUUAACGUAACAGCGAUGUCUCUCAUGAUGUC
modifications: DNA backbone; 7-deaza-7-(indolyl-ethyl)-dA (dAAIn) at 27,28,32,33,35,39,48,51; 5-(phenyl-ethynyl)-dU (dUEPh) at 24,25,26,31,40,42,44,46,49,52,54

Target: Human insulin receptor ectodomain (HIR) (Homo sapiens, UniProt P06213-2;P06213-2 28-746;751-944)
Experiment: fluorescent Ni-plate binding assay (FNBA); PBS (1.5 mM KH2PO4, 8.1 mM Na2HPO4, 2.7 mM KCl, 137 mM NaCl) with 5 mM MgCl2, pH 7.4; MST with 0.1% Pluronic F-127 at 25 C; FNBA at room temperature; high values mean tight binding
Conditions: protein: commercial; tags: His-tag; chain copies: 2;2; label: 5'-Cy5

Sequence of Human insulin receptor ectodomain (HIR) (Homo sapiens, UniProt P06213-2;P06213-2 28-746;751-944) (P06213 other isoform, or with tags, fused parts or gaps, chain 1 of 2): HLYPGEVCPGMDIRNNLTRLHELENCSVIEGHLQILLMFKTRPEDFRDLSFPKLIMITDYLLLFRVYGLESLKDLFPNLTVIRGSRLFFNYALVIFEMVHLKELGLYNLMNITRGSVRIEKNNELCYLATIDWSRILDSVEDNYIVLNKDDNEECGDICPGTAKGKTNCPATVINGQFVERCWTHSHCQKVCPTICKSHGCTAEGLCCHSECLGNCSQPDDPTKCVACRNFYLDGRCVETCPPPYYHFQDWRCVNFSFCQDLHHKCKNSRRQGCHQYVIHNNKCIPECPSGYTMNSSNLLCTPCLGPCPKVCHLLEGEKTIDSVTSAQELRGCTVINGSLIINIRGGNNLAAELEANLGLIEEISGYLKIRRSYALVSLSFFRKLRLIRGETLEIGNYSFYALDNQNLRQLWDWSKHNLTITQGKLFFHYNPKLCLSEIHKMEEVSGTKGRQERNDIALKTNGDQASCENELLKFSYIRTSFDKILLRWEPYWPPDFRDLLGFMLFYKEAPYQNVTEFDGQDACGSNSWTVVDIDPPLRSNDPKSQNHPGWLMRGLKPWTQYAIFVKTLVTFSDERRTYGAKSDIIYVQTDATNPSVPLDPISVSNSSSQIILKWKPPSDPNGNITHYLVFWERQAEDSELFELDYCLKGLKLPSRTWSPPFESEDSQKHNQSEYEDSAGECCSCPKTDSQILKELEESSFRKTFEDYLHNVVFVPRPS
Sequence of Human insulin receptor ectodomain (HIR) (Homo sapiens, UniProt P06213-2;P06213-2 28-746;751-944) (P06213 763-956, chain 2 of 2): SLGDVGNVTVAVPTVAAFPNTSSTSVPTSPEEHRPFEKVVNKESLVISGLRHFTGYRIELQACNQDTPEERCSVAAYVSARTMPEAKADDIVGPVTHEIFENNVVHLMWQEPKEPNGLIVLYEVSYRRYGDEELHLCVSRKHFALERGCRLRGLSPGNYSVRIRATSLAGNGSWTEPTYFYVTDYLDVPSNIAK

Binder	binding signal [a.u. fluorescence]
B1	26300
B2	24700
B3	30900
B4	16500
B5	13400
B6	44700
B7	184 ± 176
B8	553 ± 165
B9	28300
B10	19900
B11	45500
B12	45900 ± 733

Same assay, conditions: protein: commercial; tags: His-tag; chain copies: 2;2; label: 5'-Cy5; hairpin, stem 18-22/36-40, A35 bulge

Binder	binding signal [a.u. fluorescence]
B13	45000 ± 766

Target: Human insulin receptor ectodomain (HIR) (Homo sapiens, UniProt P06213-2 28-944)
Experiment: FNBA; IB: PBS (1.5 mM KH2PO4, 8.1 mM Na2HPO4, 2.7 mM KCl, 137 mM NaCl) + 5 mM MgCl2, pH 7.4; MST +0.1% Pluronic F-127, 25 C; SPR 25 C; FNBA and BLI r.t.
Conditions: protein: commercial; tags: His-tag; chain copies: 2; label: 5'-Cy5

Sequence of Human insulin receptor ectodomain (HIR) (Homo sapiens, UniProt P06213-2 28-944) (P06213 other isoform, or with tags, fused parts or gaps): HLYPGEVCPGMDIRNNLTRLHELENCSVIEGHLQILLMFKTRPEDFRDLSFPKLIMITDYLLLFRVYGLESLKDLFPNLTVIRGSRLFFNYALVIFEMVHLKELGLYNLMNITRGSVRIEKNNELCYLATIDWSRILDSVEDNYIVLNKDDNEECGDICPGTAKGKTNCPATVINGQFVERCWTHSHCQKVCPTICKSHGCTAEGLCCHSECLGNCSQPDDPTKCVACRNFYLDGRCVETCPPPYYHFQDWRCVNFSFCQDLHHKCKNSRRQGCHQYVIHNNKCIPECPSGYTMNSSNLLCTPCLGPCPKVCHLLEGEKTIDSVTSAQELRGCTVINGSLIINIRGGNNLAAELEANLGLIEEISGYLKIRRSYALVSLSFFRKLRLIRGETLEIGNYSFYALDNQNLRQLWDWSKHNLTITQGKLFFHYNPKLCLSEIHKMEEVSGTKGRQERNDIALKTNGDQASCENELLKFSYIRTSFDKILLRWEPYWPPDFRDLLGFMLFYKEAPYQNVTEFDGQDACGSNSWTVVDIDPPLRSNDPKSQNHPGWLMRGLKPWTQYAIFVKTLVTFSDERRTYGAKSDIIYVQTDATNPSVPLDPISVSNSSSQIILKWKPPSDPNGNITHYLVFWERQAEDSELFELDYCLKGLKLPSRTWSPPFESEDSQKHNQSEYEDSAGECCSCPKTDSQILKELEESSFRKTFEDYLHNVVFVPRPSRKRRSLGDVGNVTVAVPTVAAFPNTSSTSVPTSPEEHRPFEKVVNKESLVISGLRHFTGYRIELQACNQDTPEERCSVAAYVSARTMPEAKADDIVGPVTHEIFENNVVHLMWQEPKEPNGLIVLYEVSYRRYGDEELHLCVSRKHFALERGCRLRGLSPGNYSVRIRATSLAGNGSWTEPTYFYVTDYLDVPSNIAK

Binder	binding result
B7	no binding
B8	no binding
